The values below are quoted from earlier work in PMC5837126.

One may read the Kd as the equilibrium constant for the complex coming apart.

The target of this series is IL-2Rβγc (intermediate-affinity IL-2R) (Homo sapiens) (UniProt P14784).
UniProt P14784, sequence (P14784 27-240, chain 1 of 2): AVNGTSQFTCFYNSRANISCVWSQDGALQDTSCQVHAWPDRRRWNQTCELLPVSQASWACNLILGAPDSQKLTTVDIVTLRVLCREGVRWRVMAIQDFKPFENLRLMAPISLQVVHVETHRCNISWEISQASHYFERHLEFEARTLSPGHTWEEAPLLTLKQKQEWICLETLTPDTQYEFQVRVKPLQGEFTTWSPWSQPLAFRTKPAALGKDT
UniProt P14784, sequence (P31785 23-262, chain 2 of 2, further chain): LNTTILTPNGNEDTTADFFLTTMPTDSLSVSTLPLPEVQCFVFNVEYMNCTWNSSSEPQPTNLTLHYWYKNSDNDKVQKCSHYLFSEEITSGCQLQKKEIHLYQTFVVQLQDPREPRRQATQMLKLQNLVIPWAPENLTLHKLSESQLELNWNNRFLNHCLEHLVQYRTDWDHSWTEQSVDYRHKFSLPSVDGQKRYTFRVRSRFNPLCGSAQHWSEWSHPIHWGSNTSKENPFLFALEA

In the case of IL-2 (from UniProt P60568), the equilibrium dissociation constant (Kd) is 1 nM.
